# Marks after values point to notes of the source that are not given here.
# B1: Evolocumab (antibody, chains of the INN, looked up, V domains shown)
# VH: EVQLVQSGAEVKKPGASVKVSCKASGYTLTSYGISWVRQAPGQGLEWMGWVSFYNGNTNYAQKLQGRGTMTTDPSTSTAYMELRSLRSDDTAVYYCARGYGMDVWGQGTTVTVSS
# VL: ESALTQPASVSGSPGQSITISCTGTSSDVGGYNSVSWYQQHPGKAPKLMIYEVSNRPSGVSNRFSGSKSGNTASLTISGLQAEDEADYYCNSYTSTSMVFGGGTKLTVL
# notes: PCSK9 monoclonal antibody jointly developed by Amgen and Astellas, trade name Repatha
# How the values were obtained:
# [1] = tested on: hair follicles / hair growth in depilated C57BL/6 mice; test: Hair growth in C57BL/6 mice after rosin/paraffin depilation; assay type: in vivo
# Description: SPF grade C57BL/6 mice were selected and numbered according to their weight. They were randomly divided into compound group 1 (skin applied with 2% R-IMPP solution), compound group 2 (skin applied with 2% PF 06446846 solution), and compound group 3 (skin applied with 2% SBC-115076 solution), compound group 4 (skin applied with 2% SBC-110736 solution), monoclonal antibody group 1 (PCSK9subcutaneous injection monoclonal antibody ab81041, 5 mg/kg·d), monoclonal antibody group 2 (Subcutaneous injection of Evolocumab, 5 mg/kg·d), monoclonal antibody group 3 (subcutaneous injection of Alirocumab, 5 mg/kg·d), PCSK9 RNA interference group-1 (skin applied with 2% PCSK9 small interfering RNA-1 solution), PCSK9 RNA interference Group-2 (skin applied with 2% PCSK9 small interfering RNA-2 solution), PCSK9 RNA interference group-3 (skin applied with 2% PCSK9 small interfering RNA-3 solution), polypeptide group (subcutaneous injection of Abcam company ab32727, 3 mg/kg·d), positive control group (skin applied with 2% minoxidil solution), negative control group (skin applied with 60% ethanol), and model control group (skin applied with 60% ethanol), 10 mice in each group, half male and half female. After the mice were anesthetized with ether, they were coated on the back with a mixture of rosin and paraffin (1:1) after hot melting, and then peeled off after it solidified and hardened. The back of the mouse was cleaned to be hairless and without injuries. The depilation area was about 3 cm×4 cm. From the 2nd day after depilation, the corresponding drugs were applied to the hair removal area, twice a day, 0.5 mL per animal each time, and subcutaneously injected once a week.
# From the second day after application, observe the daily color change of the skin on the back of the mice to determine the growth state of the hair follicles and visually observe the hair growth in the depilation area, and score the new hair growth in the depilation area once a day. Five mice in each group were reserved for 40 days of visual observation, and the growth of back hair was recorded.
# On the 17th day, five mice in each group were sacrificed by cervical dislocation. The samples were taken from the same part of the back parallel to the spine, fixed with 10% formaldehyde, dehydrated, embedded in paraffin, sectioned, stained with HE, and sealed with neutral gum. Then the histology of hair follicles was observed under light microscope, and morphological staging of hair follicles was performed. According to the international hair cycle scoring method, the hair follicles were scored as follows: 100 points for growth stage VI, 200 points for early regression, 300 points for middle regression, and 400 points for late regression. 50 hair follicles were randomly selected from each mouse, the cycle of the hair follicles in each group was determined, and the average hair cycle score and the percentage of hair follicles in the growth phase VI, early regression, middle regression, and late regression were calculated.
# [2] = tested on: vitiligo guinea pig model caused by hydroquinone depigmentation; test: Vitiligo guinea pig model caused by hydroquinone depigmentation: counts of epidermal MC and melanin-granule-containing basal cells; assay type: in vivo; details: guinea pig skin after hydroquinone decolorization, drug once a day for 30 days, n = 10, x ± s
# Description: 10 in each group, Half male and female. Except for the blank control group, the other groups were smeared with 5% hydroquinone in the hair removal area for decolorization, 0.5 mL each time, twice a day, and the animals in the blank control group were smeared with an equal amount of normal saline every day. […] After modeling, the drug was administered in the above manner, once a day for 30 days.
# After the observation, the mice were sacrificed, and the skin tissue on the back about 3 cm×3 cm was cut for histopathological examination.
# The excised mouse skin tissue was fixed in 10% formalin for 1 hour, washed with running water for 3-4 min, and placed into a phosphate buffer solution (pH 7.4) containing 0.1% dihydroxyphenylalanine, and let stand at 37° C. for 1 hour. Then it was replaced with fresh Dopa reagent and left at 37° C. for 12 hours, rinsed with running water, and fixed with Bouin's solution continuously for 24 h. After the specimens were taken out, it was rinsed with running water for 4 hours, dehydrated, cleared in xylene, embedded in paraffin, deparaffinized to water, and stained with hematoxylin-eosin for contrast. Dehydrated and routinely mounted. After Dopa-oxidase staining, brownish-black staining was MC positive.
# The excised mouse skin tissue was fixed in 10% formalin, dehydrated, cleared with xylene, embedded in paraffin, sectioned, deparaffinized to water, washed with distilled water several times, then stained with Lillie reagent, soaked with ferric chloride and potassium ferricyanide mixed solution for 15-20 minutes, then differentiated with 1% acetic acid aqueous solution for several minutes, washed with distilled water several times, then quickly dehydrated with 95% ethanol and absolute ethanol, cleared in xylene, and sealed with neutral gum. If melanin was dark green after Lillie reagent staining, it was positive.
# rabbit ear acne model = test: Rabbit ear acne model induced by 2% coal tar; assay type: in vivo, New Zealand rabbits; details: n = 10
# Excerpt: The inner side of the right ear of the rabbits was taken as the observation area, the left ear of all rabbits was used as the self-negative control, and 95% alcohol was applied. The inner side of the right ear of the model group and the treatment group were smeared with 2% coal tar (Alfa Aesar China Company, 2% coal tar solution made with 95% alcohol), and evenly applied to the opening of the ear canal on the inner side of the rabbit ear with a sterile cotton swab in a range of about 2 cm×2 cm, once a day, 0.5 mL each time. Then the previous application was wiped with warm water. […] 18 hours after the last coating, the samples were sacrificed, fixed in 10% formaldehyde, embedded in paraffin, and stained with HE for histopathological analysis.
# Histological grading standard of the acne model: […], according to histology. Grade 0 means that there are only loose keratinized cells in the infundibulum, without acne forming the “1”; grade 1: the skin on the surface of the rabbit ear is red, or a small amount of dense keratinized material is seen in the infundibulum of the hair follicle, and the infundibulum is not expanded “+”; grade 2: moderately dense keratinized material is seen in the infundibulum of the hair follicle, and it extends to the sebaceous glands, with the proliferation of sebaceous gland ducts, the infundibulum expands by “2+”; grade 3: extensive keratinized material in the hair follicle. Tight keratin embolism in hair follicles causes severe expansion of hair follicles, obvious hyperplasia of sebaceous duct epithelium, skin bulges and scars, and some sebaceous glands degenerate into “3+”.
# Histopathological changes were observed under a microscope, and the thickness of 5 different epidermises on a slice was measured with the Biomias99 image analysis system, and the average value was calculated; the area of two hair follicles with the same position and the most complete structure and the diameter of four sebaceous glands were detected, and the average value of each was calculated, and then the data of the left and right external auditory canals of each group were subtracted to obtain the difference in the thickness of the epidermis, the difference in hair follicle area and the diameter of the sebaceous gland in the left and right ears of each rabbit.
# [3] = hair removal area on the back of mice, after hair removal
molecule,measurement,setting,value
B1,Time from hair growth to the same length as the hair in the non-experimental area,[1]; back hair removal area of mice,9.89* days
same,Time to grow new hair,[1]; back hair removal area of mice,5.78* days
same,Time to match the length of hair in the non-experimental area,[1]; back hair removal area of mice,16.68* days
same,Black skin duration,[1]; hair removal area on the back of mice,10.21* days
same,Skin black-turning time,[1]; [3],5.23* days
same,Skin grayish-black-turning time,[1]; [3],16.83* days
same,Epidermal melanocyte count,[2]; average number of MCs in each 100 epidermal basal cells,46.2 ± 3.8
same,Basal cells containing melanin granules count,[2]; average number per 100 epidermal basal cells,41.2 ± 3.9
same,Skin thickness,rabbit ear acne model; rabbit ear epidermis,0.1532 ± 0.0156 mm
same,Hair follicle area,rabbit ear acne model; rabbit ear,0.1533 ± 0.0562* mm^2
same,Sebaceous gland diameter,rabbit ear acne model; rabbit ear,0.0432 ± 0.0267 mm
same,Histological grading of acne: number of animals graded −,"rabbit ear acne model; right ear, grade 0: only loose keratinized cells in the infundibulum, without acne",9
same,Histological grading of acne: number of animals graded 1+,"rabbit ear acne model; right ear, grade 1: small amount of dense keratinized material, infundibulum not expanded",1
same,Histological grading of acne: number of animals graded 2+,"rabbit ear acne model; right ear, grade 2: moderately dense keratinized material extending to sebaceous glands, infundibulum expands",0
same,Histological grading of acne: number of animals graded 3+,"rabbit ear acne model; right ear, grade 3: extensive keratinized material, severe expansion of hair follicles",0

# Source: patent US20230346773A1, “USE OF PCSK9 INHIBITOR IN PREPARATION OF PRODUCT FOR TREATING MULTIPLE DISEASES” (priority 2020, published 2023)
